Source: patent US20120301469A1 (Ablynx, published 2012)

How the values were obtained:
[1] = target: T1, protein F of hRSV strain B-1 (on RSV B-1-infected Hep2 cells and on virus) (human respiratory syncytial virus, …, UniProt P13843 26-574); experiment: cell-based or functional assay
[2] = target: T1, protein F of hRSV strain B-1 (on RSV …); experiment: cell-based or functional assay; remark: listed apart in the source
[3] = target: T1, protein F of hRSV strain B-1 (on RSV …); experiment: cell ELISA on RSV B-1-infected Hep2 cells, periplasmic extract 1:50
[4] = target: T1, protein F of hRSV strain B-1 (on RSV …); experiment: cell ELISA on RSV B-1-infected Hep2 cells, periplasmic extract 1:200
[5] = target: protein F of hRSV strain Long, on virus (inactivated hRSV Long, Hytest #8RSV79; RSV Long LM-2, ATCC VR-26) (human respiratory syncytial virus, …, UniProt P12568 26-574); experiment: cell-based or functional assay
[6] = target: T2, hRSV FTM-NN (membrane anchorless form of the Long fusion protein, 70 kDa) (human respiratory syncytial virus, …, UniProt P12568 26-524); experiment: ELISA on immobilized FTM-NN, periplasmic extract 1:10
T2 construct: also called FTM-NN (Long); hRSV FTM-protein

[7] = target: T2, hRSV FTM-NN (membrane anchorless form …); experiment: competition ELISA on FTM-NN, competitor 101F Fab, purified Nanobody
[8] = target: T2, hRSV FTM-NN (membrane anchorless form …); experiment: SPR (Biacore), FTM-NN amine-coupled on CM5 chip, 1:1 Langmuir fit
[9] = target: T2, hRSV FTM-NN (membrane anchorless form …); experiment: competition ELISA on FTM-NN, competitor Synagis Mab, purified Nanobody

| Binder | micro-neutralization of RSV B-1 [1] [µM] | Neutralization B-1 IC50 [2] [nM] | Binding Hep2-B-1 (% control) 1:50 PE [3] [% control] | Binding Hep2-B-1 (% control) 1:200 PE [4] [% control] | Neutralization Long IC50 [5] [nM] | Binding Long 1:10 PE (Fold blanc) [6] [fold blanc] | IC50 [7] [nM] | Kd [8] [nM] | koff [8] [s⁻¹] | kon [8] [M⁻¹ s⁻¹] | IC50 [9] [nM] |
| --- | --- | --- | --- | --- | --- | --- | --- | --- | --- | --- | --- |
| Nanobody 1E4 (VHH, also called PMP1E4; PRSV1E4) VHH: EVQLVESGGGLVQAGGSLRLSCEASGRTFSSYGMGWFRQAPGKEREFVAAVSRLSGPRTVYADSVKGRFTISRDNAENTVYLQMNSLKPEDTAVYTCAAELTNRNPGAYYYTWAYDYWGQGTQVTVSS | > 10 | > 10000 | 55 | 55 |  |  |  |  |  |  |  |
| Nanobody 20B2 (VHH, also called PMP20B2; PR5V20B2) VHH: EVQLVESGGGLVQAGGSLRLSCEASGRTFSSYDMGWFRQAPGKEREFVAAVTRWSGARGVYADSVKGRFTISRDNAENTVHLQMNSLKPEDTAVYTCAADSTNRNSGAVYYTWAYDYWGQGTQVTVSS | > 10 | > 10000 | 32 | 32 | 1760 | 3 |  |  |  |  |  |
| Nanobody 13D1 (VHH, also called PMP13D1; PRSV13D1) VHH: EVQLVESGGGLVQPGGSLRLSCATSGFTEDYYVIGWFRQAPGKEREGVSCMSSSGDSTTYADSVKGRFTISRDNAKNMVYLQMTSLKPEDTAVYYCAADFALGCYSGSYYPRYDYWGQGTQVTVSS |  | 5850 | 93 | 75 |  | 3.1 | 3.37 |  |  |  |  |
| Nanobody 23E5 (VHH, also called PMP23E5; PRSV23E5) VHH: EVQLMESGGGLVQAGGSLRLSCAASGGTFSSYAMGWFRQAPGEERDFVAAIGWSGNSPYYAQFVKGRFTISRDNAKNTVHLQMNSLKPEDTAVYYCAAAHNTMGSDYEGYDYWGQGTQVTVSS |  | > 15000 | 103 | 82 |  | 3.4 | 1.73 | 7.9 | 0.0013 | 160000 |  |
| Nanobody 13B4 (VHH, also called PMP13B4; PRSV13B4) VHH: EVQLVESGGGLVQAGGSLRLSCAASGFTFDDYAIGWFRQAPGKEREAVSCISSSDGSTYYADSVKGRFTISSDNAKNMVYLQMNSLKPEDTAVYYCAADLLRTAVGCLDYRGTYYPRTTMDYRGKGTLVTVSS |  | > 15000 | 75 | 56 |  | 2.7 | 3.69 |  |  |  |  |
| Nanobody 13E12 (VHH, also called PMP13E12; PRSV13E12) VHH: EVQLVESGGGLVQAGGSLRLSCAASGRTFSRYIMGWFRQAPGKEREFVGAISRSGDITSFADFVKGRFTMSRDNAKNTLYLQMNSLEPEDTAVYSCAANSDTYYIYSDIVVPERYDYWGQGTQVTVSS |  | 12300 | 97 | 75 |  | 3.7 | 3.52 | 1.5 | 0.00016 | 110000 |  |
| Nanobody 8B10 (VHH, also called PMP8B10; PRSV8B10) VHH: EVQLVESGGGLVQAGASLRLSCAASGLAFSRYAMGWFRQAPGKERESVAAISSSGDNIYYADSVKGQFTMSRDNAKSSVYLQMINLKPEDTAVYYCAATSPLFVASDYFEASRYGYWGQGTQVTVSS |  | > 15000 | 94 | 84 |  |  |  |  |  |  |  |
| Nanobody 1B2 (VHH, c-myc/His6-tagged; also called PMP1B2; PRSV1B2) VHH: EVQLVESGGGLVQAGGSLRLSCAASGPTFSADTMGWFRQAPGKEREFVATIPWSGGIAYYSDSVKGRFTMSRDNAKNTVDLQMNSLKPEDTALYYCAGSSRIYIYSDSLSERSYDYWGQGTQVTVSS |  | 7380 | 88 | 85 |  | 3.8 | 2.91 | 0.44 | 0.00017 | 380000 |  |
| Nanobody 19C4 (VHH, also called PMP19C4; PRSV19C4) VHH: EVQLVESGGGLVQAGGSLRLSCAASGRSFSNYVLGWFRQAPGKEREFVAAISFRGDSAIGAPSVEGRFTISRDNAKNTGYLQMNSLVPDDTAVYYCGAGTPLNPGAYIYDWSYDYWGRGTQVTVSS | > 10 | > 10000 | 72 | 50 | 332 | 2.5 |  |  |  |  | 209 |
| Nanobody 13C1 (VHH, also called PMP13C1; PRSV13C1) VHH: EVQLVESGGGLVQPGGSLRLSCEASGFTWDYYVIGWFRQAPGKEREGLSCISSDGSTTYADSVKGRFTISRDNAKNTVYLQMNSLEPEDTAVYYCATDPALGCYSGSYYPRYDYWGQGTQVTVSS |  | 11400 | 104 | 86 |  | 3 | 3.83 |  |  |  |  |
| Nanobody NC41 (VHH) VHH: EVQLVESGGGLVQAGGSLSISCAASGGSLSNYVLGWFRQAPGKEREFVAAINWRGDITIGPPNVEGRFTISRDNAKNTGYLQMNSLAPDDTAVYYCGAGTPLNPGAYIYDWSYDYWGRGTQVTVSS | > 10 |  |  |  | 221 |  |  | 8.1 | 0.0067 | 820000 | 416 |
| Nanobody 20C1 (VHH, also called PMP20C1; PRSV20C1) VHH: EVQLVESGGGLVQAGGSLRLSCAASGRTFSSFAMGWFRQAPGKEREFVAAISWSGGSTYYADSVKGRFTISGDNAKNTMYLQMNSLKPEDTAVYYCAADSEILNSGAYYYPWAYVYWGQGTQVTVSS | > 10 | > 10000 | 37 | 35 | 5290 | 2.7 |  |  |  |  |  |
| Nanobody 1A2 (VHH, also called PMP1A2; PRSV1A2) VHH: EVQLVESGGGLVQAGGSLRLSCAASERTFSYYAMGWFRQAPGKEREFVATISRSGEWIYYKDAMKGRFTISRDNANNAVYLQMNSLQPEDTAIYYCAADSLGGFRSASDYYNTNTYAYWGQGTQVTVSS |  | 13700 | 86 | 66 |  | 4 | 2.9 |  |  |  |  |
| Nanobody 1A6 (VHH, also called PMP1A6; PRSV1A6) VHH: EVQLVESGGGLVQAGGSLRLSCAASGRTFSSYAMGWFRQAPGKEREFVAAIWWSGGSTYYADSVKGRFTMSRDNAKNTVYLEMNNLKPEDTAVYYCAADTDSSNSGSYLYTWAYDYWGQGTQVTVSS | > 10 | > 10000 | 57 | 39 | 4500 | 4.2 |  |  |  |  |  |
| Nanobody 1G8 (VHH, also called PMP1G8; PRSV1G8) VHH: EVQLVESGGGSVQAGGSLRLSCAASGGSFNRFGMGWFRRAPGKERDFVAAINLSGDTTYYVDSVQGRFTISRDNANNIMYLQMNLLKPEDTADYYCAADPDPITAWKQSGAGMDYWGKGTQVTVSS | > 10 | > 10000 | 73 | 43 | 10000 | 3.7 |  |  |  |  |  |
| Nanobody 13A1 (VHH, also called PMP13A1; PRSV13A1) VHH: EVQLVESGGGLVQPGGSLRLSCAASGLTLDYYALGWFRQAPGKEREGVSCISSADHSTTYADSVKGRFTISWDNAKNTVYLQMNSLKPEDTAVYYCAADPALGCYSGNYYPRYDYWGQGTQVTVSS |  | 6160 | 84 | 65 |  | 2.9 | 4.23 | 0.61 | 0.00035 | 570000 |  |
| Nanobody 19E2 (VHH, also called PMP19E2; PRSV19E2) VHH: EVQLVESGGGLVQPGGSLRLSCAASGLTLDYYALGWFRQAPGKEREGVSCISSSDHTTTYTDSVKGRFTISWDNAKNTLYLQMNSLKPEDTAVYYCAADPALGCYSGSYYPRYDFWGQGTQVTVSS |  | 4550 | 87 | 58 |  | 3.5 | 2.93 | 0.52 | 0.00024 | 460000 |  |
| Nanobody 8A1 (VHH, also called PMP8A1; PRSV8A1) VHH: EVQLVESGGGLVQPGGSLRVSCAASGFTFNDYIMGWFRQAPGKERMFIAAISGTGTIKYYGDLVRGRFTISRDNAKNTVYLRIDSLNPEDTAVYYCAARQDYGLGYRESHEYDYWGQGTQVTVSS |  | 12200 | 98 | 92 |  | 3.7 | 2.81 |  |  |  |  |
